Consider 94 variants from the supplement of paper PMC10567573.

B1: LOC100129726 (parent)
chain: VHTGCHKKLGPEARRPRTRWGKN
B2: SPDEF (parent)
chain: FQELAGKELCAMSEEQFRQRSPLG
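Also: lentivirally expressed fusions sorted by FACS into six bins by GFP to DsRed ratio, PSI derived from sequencing read proportions per bin multiplied by bin number.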

In one data set the parent is B1. As to the kind of experiment: protein stability index of a GFP-peptide fusion (GPS, HEK-293T) (PSI 1-6); higher = more stable. The following applies: c terminus: native.
Regarding HHTGCHKKLGPEARRPRTRWGKN [V1H], the protein stability index stood at 2.43.
On the same count and under the same terms, the figure for SHTGCHKKLGPEARRPRTRWGKN [V1S] is 1.99; for IHTGCHKKLGPEARRPRTRWGKN [V1I] it is 2.54; for LHTGCHKKLGPEARRPRTRWGKN [V1L] it is 1.84.
Still for that read-out and setting: the figure for RHTGCHKKLGPEARRPRTRWGKN [V1R] is 2.02; for CHTGCHKKLGPEARRPRTRWGKN [V1C] it is 2.12.
Still for that read-out and setting: the figure for EHTGCHKKLGPEARRPRTRWGKN [V1E] is 2.96.
MHTGCHKKLGPEARRPRTRWGKN [V1M]: the protein stability index was 1.73.
Still for that read-out and setting: the figure for VTTGCHKKLGPEARRPRTRWGKN [H2T] is 1.49; for VGTGCHKKLGPEARRPRTRWGKN [H2G] it is 2.38; for VATGCHKKLGPEARRPRTRWGKN [H2A] it is 2.13.
VDTGCHKKLGPEARRPRTRWGKN [H2D]: the protein stability index is 1.82.
Same read-out and setting: under VPTGCHKKLGPEARRPRTRWGKN [H2P] stands 2.05; under VWTGCHKKLGPEARRPRTRWGKN [H2W], 1.38.
Same read-out and setting: under VVTGCHKKLGPEARRPRTRWGKN [H2V] stands 2.99.
The same measure, in the same setting: the figure for VKTGCHKKLGPEARRPRTRWGKN [H2K] is 1.94.
In the case of VQTGCHKKLGPEARRPRTRWGKN [H2Q], the protein stability index worked out at 2.44.
On the same count and under the same terms, under VNTGCHKKLGPEARRPRTRWGKN [H2N] stands 2.5; under VLTGCHKKLGPEARRPRTRWGKN [H2L], 2.38; under VYTGCHKKLGPEARRPRTRWGKN [H2Y], 1.85.
The same measure, in the same setting: under VMTGCHKKLGPEARRPRTRWGKN [H2M] stands 2.79.
For VRTGCHKKLGPEARRPRTRWGKN [H2R], the protein stability index came out at 4.
VHDGCHKKLGPEARRPRTRWGKN [T3D]: the protein stability index turned out to be 3.27.

Variants of B2 are the subject of a further data set. The data set is described as above. The conditions noted are these: c terminus: a fixed tail appended.
Turning to FQELAGKELCAMSEEQFRQRSPKG [L23K], the protein stability index is 3.21.
On the same count and under the same terms, the figure for FQELAGKELCAMSEEQFRQRSPWG [L23W] is 1.69; for FQELAGKELCAMSEEQFRQRSPNG [L23N] it is 3.46.
Still for that read-out and setting: the figure for FQELAGKELCAMSEEQFRQRSPSG [L23S] is 3.16; for FQELAGKELCAMSEEQFRQRSPGG [L23G] it is 3.31.
On the same count and under the same terms, the figure for FQELAGKELCAMSEEQFRQRSPDG [L23D] is 2.8; for FQELAGKELCAMSEEQFRQRSPFG [L23F] it is 2.78; for FQELAGKELCASSEEQFRQRSPLG [M12S] it is 3.75.
Consider FQELAGKELCAGSEEQFRQRSPLG [M12G], for which the protein stability index turned out to be 3.04.
Turning to FQELAGKELCAKSEEQFRQRSPLG [M12K], the protein stability index worked out at 3.3.
Same read-out and setting: the figure for FQELAGKELCAYSEEQFRQRSPLG [M12Y] is 2.88; for FQELAGKELCACSEEQFRQRSPLG [M12C] it is 2.39.
Regarding FQELAGKELCAPSEEQFRQRSPLG [M12P], the protein stability index turned out to be 2.38.
Take FQELAGKELCATSEEQFRQRSPLG [M12T]: the protein stability index came to 3.4.
On the same count and under the same terms, under FQELAGKELCAISEEQFRQRSPLG [M12I] stands 2.46; under FQELAGKELCARSEEQFRQRSPLG [M12R], 3.34.
Still for that read-out and setting: under FQELAGKELCAFSEEQFRQRSPLG [M12F] stands 2.47.
The same measure, in the same setting: the figure for FQELDGKELCAMSEEQFRQRSPLG [A5D] is 3.71; for FQELLGKELCAMSEEQFRQRSPLG [A5L] it is 1.82.
As to FQELCGKELCAMSEEQFRQRSPLG [A5C], the protein stability index turned out to be 2.69.
Take FQELNGKELCAMSEEQFRQRSPLG [A5N]: the protein stability index stood at 2.82.
In the case of FQELFGKELCAMSEEQFRQRSPLG [A5F], the protein stability index was 2.5.
For the variant FQELKGKELCAMSEEQFRQRSPLG [A5K], the protein stability index came out at 3.27.
Turning to FQDLAGKELCAMSEEQFRQRSPLG [E3D], the protein stability index stood at 2.1.
For the variant FQILAGKELCAMSEEQFRQRSPLG [E3I], the protein stability index came out at 2.55.
For FQHLAGKELCAMSEEQFRQRSPLG [E3H], the protein stability index was 3.36.
As for FQVLAGKELCAMSEEQFRQRSPLG [E3V], the protein stability index came to 2.44.
FQPLAGKELCAMSEEQFRQRSPLG [E3P]: the protein stability index was found to be 2.64.
Still for that read-out and setting: under FQCLAGKELCAMSEEQFRQRSPLG [E3C] stands 2.48; under FQELAGKQLCAMSEEQFRQRSPLG [E8Q], 2.25.
For the variant FQELAGKVLCAMSEEQFRQRSPLG [E8V], the protein stability index turned out to be 2.52.
On the same count and under the same terms, under FQELAGKTLCAMSEEQFRQRSPLG [E8T] stands 1.99.
On the same count and under the same terms, under FQELAGKLLCAMSEEQFRQRSPLG [E8L] stands 2.5.
The same measure, in the same setting: the figure for FQELAGKRLCAMSEEQFRQRSPLG [E8R] is 1.78; for FQELAGKMLCAMSEEQFRQRSPLG [E8M] it is 2.5; for FQELAGKILCAMSEEQFRQRSPLG [E8I] it is 1.53.
Consider FQELAGKALCAMSEEQFRQRSPLG [E8A], for which the protein stability index was 2.37.
On the same count and under the same terms, the figure for FQELAGKHLCAMSEEQFRQRSPLG [E8H] is 1.77.
The same measure, in the same setting: the figure for FQELAGKELCAMSEEQFPQRSPLG [R18P] is 2.92; for FQELAGKELCAMSEEQFGQRSPLG [R18G] it is 2.9; for FQELAGKELCAMSEEQFLQRSPLG [R18L] it is 2.76.
Regarding FQELAGKELCAMSEEQFYQRSPLG [R18Y], the protein stability index is 2.29.
Still for that read-out and setting: under FQELAGKELCAMSEEQFCQRSPLG [R18C] stands 2.51; under FQELAGKELCAMSEEQFHQRSPLG [R18H], 2.64.
Still for that read-out and setting: the figure for FQELAGKEKCAMSEEQFRQRSPLG [L9K] is 3.61; for FQELAGKEDCAMSEEQFRQRSPLG [L9D] it is 4.79.
Still for that read-out and setting: under FQELAGKEGCAMSEEQFRQRSPLG [L9G] stands 4.34; under FQELAGKEFCAMSEEQFRQRSPLG [L9F], 2.56; under FQELAGKEACAMSEEQFRQRSPLG [L9A], 3.41.
With FQELAGKEWCAMSEEQFRQRSPLG [L9W], the protein stability index turned out to be 2.8.
Turning to FQELAGKELCAMSEEFFRQRSPLG [Q16F], the protein stability index was found to be 2.13.
Same read-out and setting: the figure for FQELAGKELCAMSEERFRQRSPLG [Q16R] is 2.6.
Regarding FQELAGKELCAMSEEIFRQRSPLG [Q16I], the protein stability index stood at 2.49.
Same read-out and setting: the figure for FQELAGKELCAMSEEWFRQRSPLG [Q16W] is 1.92; for FQELAGKELCAMSEEDFRQRSPLG [Q16D] it is 3.23; for FQELAGKELCAMSEECFRQRSPLG [Q16C] it is 2.86.
On to FHELAGKELCAMSEEQFRQRSPLG [Q2H], for which the protein stability index was 2.57.
On the same count and under the same terms, the figure for FKELAGKELCAMSEEQFRQRSPLG [Q2K] is 3.61; for FEELAGKELCAMSEEQFRQRSPLG [Q2E] it is 4.17; for FVELAGKELCAMSEEQFRQRSPLG [Q2V] it is 2.73.
On the same count and under the same terms, the figure for FGELAGKELCAMSEEQFRQRSPLG [Q2G] is 2.44.
Still for that read-out and setting: the figure for FDELAGKELCAMSEEQFRQRSPLG [Q2D] is 4.74; for FQELAGKELCAMSLEQFRQRSPLG [E14L] it is 2.3; for FQELAGKELCAMSVEQFRQRSPLG [E14V] it is 2.07.
As for FQELAGKELCAMSSEQFRQRSPLG [E14S], the protein stability index came out at 2.3.
Same read-out and setting: the figure for FQELAGKELCAMSMEQFRQRSPLG [E14M] is 2.03; for FQELAGKELCAMSTEQFRQRSPLG [E14T] it is 1.89.
Still for that read-out and setting: under FQELAGKELCAMSAEQFRQRSPLG [E14A] stands 2.28; under FQELAGKELCAMSEEQFRQRSPLT [G24T], 2.76; under FQELAGKELCAMSEEQFRQRSPLH [G24H], 2.44.
Still for that read-out and setting: the figure for FQELAGKELCAMSEEQFRQRSPLP [G24P] is 2.89.
